The data set is described as follows: protein stability index of a GFP-peptide fusion (GPS, HEK-293T) (PSI 1-6); higher = more stable.
[1] abbreviates: treatment: DMSO, c terminus: a fixed tail appended.
The mark [2] stands for this setting: treatment: MLN4924 1 uM, 8 h, c terminus: a fixed tail appended.

Consider 72 sequences from the supplement of paper PMC10567573.

± gives the standard deviation.
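Also: 24-mer peptide tiles fused after GFP, lentivirally expressed, FACS-sorted into six equal bins by GFP/DsRed ratio, decoded by Illumina sequencing, PSI is the read-weighted mean bin number.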

Regarding QILPVLDFCKVFLISGVTLDNCVE [KLHL13], the protein stability index is 3.21 ± 0.41 under setting [1] and 2.49 ± 0.064 under setting [2].

As to QIVLLKSSAIEVIMLRSNESFTMD [VDR], the protein stability index was 2.6 ± 0.7 under setting [1] and 2.44 ± 0.4 under setting [2].

QKLIVNLKPEKSYSFVLTNRGNSA [PTPRD] showed a protein stability index under setting [1] of 2.58 ± 0.36 and a protein stability index under setting [2] of 2.58 ± 0.13.

As to QKPLCASDGRTFLSRCEFQRAKCK [SMOC2], the protein stability index stood at 3.14 ± 0.52 under setting [1] and 3.6 ± 0.88 under setting [2].

With QLDIEEEGRPGAATFHVGGGPAQN [TFE3], the protein stability index by setting is: under setting [1], 5.26 ± 0.31; under setting [2], 5.16 ± 0.32.

For QLKAVHEQLAALSQAPVNKPKKKK [BRD3], the protein stability index runs as follows: under setting [1], 4.51 ± 0.44; under setting [2], 4.6 ± 0.19.

For the sequence QLLARRMQVDKKRVYLATDDPSLL [FUT8], the protein stability index reads like this: under setting [1], 2.61 ± 0.23; under setting [2], 2.92 ± 0.27.

Consider QLPIDRGGGEGKAMYIDTEGTFRP [RAD51], for which the protein stability index is, setting by setting: under setting [1], 4.16 ± 0.15; under setting [2], 4.05 ± 0.24.

In turn, QLRATAGSLILPPGPGGTMKRHSS [FCHO1] displayed a protein stability index under setting [1] of 3.87 ± 0.16 and a protein stability index under setting [2] of 3.91 ± 0.33.

With QLYTAYILENRPPGSLLCTVAASD [PCDHGC5], the protein stability index came to 2.11 ± 0.24 under setting [1] and 2.18 ± 0.26 under setting [2].

As for QNLCKGLSQPTTNLVAGCLQLNAR [NEUROD6], the protein stability index runs as follows: under setting [1], 2.97 ± 0.2; under setting [2], 3.15 ± 0.23.

With QNLNDRLASYLEKVRALEEANADL [KRT13], the protein stability index runs as follows: under setting [1], 4.13 ± 0.17; under setting [2], 3.98 ± 0.39.

With QNPTASYYNVVLLRYQFSRPGPQS [FCHO1], the protein stability index was 2.44 ± 0.46 under setting [1] and 2.41 ± 0.27 under setting [2].

In turn, QPPAITQVHRQGERRRELVRSQTL [SMTNL2] displayed a protein stability index under setting [1] of 4.19 ± 0.39 and a protein stability index under setting [2] of 4.57 ± 0.33.

For QPPDMASALTDRTSRAPSTYTYTS [RSPH3], the protein stability index runs as follows: under setting [1], 4.39 ± 0.17; under setting [2], 4.51 ± 0.15.

On to QPSFPEILLESHMVMIRGNSGLKP [POMT2], for which the protein stability index runs as follows: under setting [1], 2.79 ± 0.3; under setting [2], 3.07 ± 0.21.

On to QRDSKCKVKWTHEEDEQLRALVRQ [MYBL2], for which the protein stability index runs as follows: under setting [1], 4.25 ± 0.33; under setting [2], 4.02 ± 0.24.

Consider QRGALPAPDPELAAEMYQRGRAVL [RSAD1], for which the protein stability index worked out at 4.36 ± 0.18 under setting [1] and 4.38 ± 0.17 under setting [2].

On to QRSHMGKLKEPQPQDHKPGLGAS, for which the protein stability index turned out to be 3.13 ± 0.88 (treatment: DMSO, c terminus: native) and 3.63 ± 0.56 (treatment: MLN4924 1 uM, 8 h, c terminus: native).

For the sequence QSQSLRDRARRFEEALRKNTEEQL [MTUS2], the protein stability index by setting is: under setting [1], 4.88 ± 0.28; under setting [2], 5.06 ± 0.18.

QTTYLEDRPMFMLQCAMEENCLSA [LOXL2]: the protein stability index stood at 2.38 ± 0.59 under setting [1] and 2.33 ± 0.43 under setting [2].

With QVENWSAFAPDFKELDENVEYEER [RBBP5], the protein stability index is 5.05 ± 0.36 under setting [1] and 5.15 ± 0.48 under setting [2].

For the sequence QVTMRGLLSCLSKSNNRLKSLSIQ [FBXO39], the protein stability index turned out to be 2.21 ± 0.11 under setting [1] and 2.07 ± 0.21 under setting [2].

For the sequence QYEKYSFRGFPPEDLMPLAAAYGH [P3H4], the protein stability index came to 3.01 ± 0.4 under setting [1] and 2.55 ± 0.57 under setting [2].

As to QYFVVDPMAEYNMPQYILREFKVT [PTPRD], the protein stability index is, setting by setting: under setting [1], 2.48 ± 0.56; under setting [2], 2.15 ± 0.16.

Take RAALICLTLVLVASVLLQAVLYPR [CD207]: the protein stability index was 2.44 ± 0.55 under setting [1] and 2.59 ± 0.53 under setting [2].

For RADCASESACSSDSLDEARSSGSE [PWWP2B], the protein stability index reads like this: under setting [1], 5.42 ± 0.3; under setting [2], 5.53 ± 0.26.

RAKDFLPADIQAQFAISRELIRNI [SNX8]: the protein stability index by setting is: under setting [1], 2.38 ± 0.18; under setting [2], 2.48 ± 0.24.

As for RAKVKTDDIARIYQPKRYALSPKT [FAM98B], the protein stability index under setting [1] turned out to be 3.4 ± 0.26 and the protein stability index under setting [2] amounted to 3.5 ± 0.13.

For RASALCDRHTKFFEEPEDPSNRSF [PPP2R2B], the protein stability index stood at 4.38 ± 0.19 under setting [1] and 4.49 ± 0.25 under setting [2].

In the case of RASYSDGKLKAPPKPCAGNQGTQI [MLH1], the protein stability index is, setting by setting: under setting [1], 4.05 ± 0.53; under setting [2], 4.17 ± 0.14.

For RCINDPYLEVLETMDNKKGRRYEA [CLCN6], the protein stability index by setting is: under setting [1], 3.82 ± 0.15; under setting [2], 4.03 ± 0.32.

Turning to RDEAIYECVASNNVGEISVSTRLT [PTPRD], the protein stability index is, setting by setting: under setting [1], 4.03 ± 0.34; under setting [2], 3.91 ± 0.23.

Turning to RDPSLRPARTVLVGSLSWLRKQLQ, the protein stability index under setting [1] worked out at 2.75 ± 0.51 and the protein stability index under setting [2] is 3.19 ± 0.48.

RDRLRSRLEALSTERDEIEDVKCQ [TRIM15] showed a protein stability index under setting [1] of 5.32 ± 0.15 and a protein stability index under setting [2] of 5.44 ± 0.35.

For the sequence REGDCAPEEKIWEELSVLEVFEGR [MAGEA3], the protein stability index amounted to 5.08 ± 0.22 under setting [1] and 5.14 ± 0.11 under setting [2].

Regarding REITGVQAQPGEATSGPPGIQPGQ [PALM], the protein stability index came to 5.37 ± 0.26 under setting [1] and 5.23 ± 0.2 under setting [2].

For the sequence REKQLSHSLRAVSTDPPHHDHHDE [BEX1], the protein stability index by setting is: under setting [1], 5.37 ± 0.4; under setting [2], 5.382 ± 0.051.

Regarding REQGPREQEPELSFLKQKEQLEAE [PBXIP1], the protein stability index by setting is: under setting [1], 5.5 ± 0.35; under setting [2], 5.58 ± 0.33.

For the sequence RERAVEWRERAVEKRERALEEVER [ZBED2], the protein stability index under setting [1] turned out to be 4.9 ± 0.71 and the protein stability index under setting [2] worked out at 5.08 ± 0.29.

REVAKELGLPYYETSVFDQFGIKD [RHOBTB1] displayed a protein stability index under setting [1] of 3.18 ± 0.44 and a protein stability index under setting [2] of 3.27 ± 0.29.

RFIIIFEQIRFVMKAHSFVRENVP [SOAT1]: the protein stability index by setting is: under setting [1], 2.51 ± 0.39; under setting [2], 2.65 ± 0.56.

For the sequence RFIRERDRAVNDYPSLYYPEMYIL [CDC25B], the protein stability index reads like this: under setting [1], 2.49 ± 0.53; under setting [2], 1.91 ± 0.29.

Consider RFQDPAAASISDGDCDAREEKQRE [FAM219A], for which the protein stability index is, setting by setting: under setting [1], 5.5 ± 0.4; under setting [2], 5.46 ± 0.32.

For RGENLEHLRNKTEDLEATSEHFKT [VAMP8], the protein stability index runs as follows: under setting [1], 5.43 ± 0.35; under setting [2], 5.29 ± 0.12.

As for RGIAIVSVLVILISIVIFCLETLP [KCNA4], the protein stability index was 2.29 ± 0.17 under setting [1] and 2.26 ± 0.33 under setting [2].

As to RGRPRKLSKEYWDCLEGKKSKHAP [ELF3], the protein stability index is, setting by setting: under setting [1], 4.18 ± 0.27; under setting [2], 4.19 ± 0.47.

RHVAPIPSHYDVQDRFRIELSEEG [MOSPD3]: the protein stability index under setting [1] stood at 4.34 ± 0.4 and the protein stability index under setting [2] turned out to be 4.69 ± 0.21.

Take RKFSRLSCLRRRRHPPKVGDDSDL [SMG5]: the protein stability index is, setting by setting: under setting [1], 4.08 ± 0.17; under setting [2], 3.96 ± 0.28.

On to RKLQKEQQRSKDLESRQRSLEQAN [TFE3], for which the protein stability index is 5.09 ± 0.3 under setting [1] and 5.11 ± 0.27 under setting [2].

As to RKVLQAVHRGDGANPFQAYLDVDL [RTN2], the protein stability index amounted to 3.21 ± 0.26 under setting [1] and 3.26 ± 0.19 under setting [2].

Turning to RLAADDFRTKFETEQALRLSVEAD [KRT17], the protein stability index is 4.8 ± 0.3 under setting [1] and 4.66 ± 0.15 under setting [2].

RLAQGNPQQGFFSSFFTCNQKCQL [ATP23] yielded a protein stability index under setting [1] of 2.49 ± 0.45 and a protein stability index under setting [2] of 2.53 ± 0.23.

RLAQPSSPEVLTPQLSPGSGTPQA [RTN2]: the protein stability index by setting is: under setting [1], 5.12 ± 0.12; under setting [2], 4.96 ± 0.2.

As to RLPWAGQLTKELPLSPAFFGEDGI [PBXIP1], the protein stability index stood at 3.43 ± 0.44 under setting [1] and 3.49 ± 0.28 under setting [2].

Take RLVLPIAYEFNPELVLVSAGFDAA [HDAC6]: the protein stability index was found to be 2.3 ± 0.57 under setting [1] and 2.4 ± 0.2 under setting [2].

RLWGIRKNRPAMNYDKLSRSIRQY [SPDEF]: the protein stability index is, setting by setting: under setting [1], 2.4 ± 0.25; under setting [2], 2.4 ± 0.45.

Turning to RMPDEDSKIDHYVLEYRRTNFEGP [FSD1], the protein stability index is, setting by setting: under setting [1], 3.78 ± 0.19; under setting [2], 3.79 ± 0.14.

Consider RNGLHLPEQVQNEIKSMKKRMSEL [NLN], for which the protein stability index is, setting by setting: under setting [1], 4.11 ± 0.33; under setting [2], 4.4 ± 0.31.

RNRGRFSSTTGLFYSAEIICAIEY [PRKX]: the protein stability index is 2.92 ± 0.47 under setting [1] and 2.91 ± 0.71 under setting [2].

Turning to RPDGDCASSLNGGNIKGIEGHSPG [ZC2HC1A], the protein stability index runs as follows: under setting [1], 5.16 ± 0.18; under setting [2], 5.02 ± 0.31.

For RPLCAQGDWHSPTLIREKSFGACL [ELOA2], the protein stability index came to 2.53 ± 0.19 under setting [1] and 2.6 ± 0.21 under setting [2].

With RPMHHEDFKEDLKKFRTKSRTWAG [CDC25A], the protein stability index is 3.31 ± 0.22 under setting [1] and 3.61 ± 0.36 under setting [2].

On to RPSTYYELLGVHPGASTEEVKRAF [DNAJC4], for which the protein stability index reads like this: under setting [1], 3.48 ± 0.21; under setting [2], 3.86 ± 0.23.

As for RQKTSGPSVIQEIHQESGKAPSTD [C10orf62], the protein stability index under setting [1] is 5.41 ± 0.073 and the protein stability index under setting [2] was determined as 5.4 ± 0.057.

Consider RRARINESLQELRLLLAGAEVQAK [HES6], for which the protein stability index under setting [1] worked out at 2.62 ± 0.3 and the protein stability index under setting [2] was 2.84 ± 0.77.

In the case of RRDAEEWFHAKSAELNKEVSTNTA [KRT13], the protein stability index is, setting by setting: under setting [1], 4.71 ± 0.25; under setting [2], 4.79 ± 0.1.

RRFSSEDLEDPLGGLLSYDEGGIT [FBF1]: the protein stability index by setting is: under setting [1], 4.57 ± 0.21; under setting [2], 4.56 ± 0.16.

Regarding RRKIRELQLRYSLRILIGDPPHHD [BEX5], the protein stability index is 2.42 ± 0.42 under setting [1] and 2.07 ± 0.23 under setting [2].

As to RSCAIVEDDGLQSAFTAAHELGHV [ADAMTS4], the protein stability index runs as follows: under setting [1], 3.62 ± 0.43; under setting [2], 3.55 ± 0.2.

Turning to RSLILDDRGLRGFPKNRVLEGVID [TRIM9], the protein stability index runs as follows: under setting [1], 3.16 ± 0.2; under setting [2], 3.47 ± 0.41.

Consider RSRYDGHRIWMYNCHIGGSFSEET [LOXL2], for which the protein stability index came out at 2.17 ± 0.35 under setting [1] and 2.72 ± 0.35 under setting [2].
